# Experimental data taken from publication PMC3169403 (Acta Crystallographica Section F: Structural Biology and …, 2011).
# Target: glutaryl-CoA dehydrogenase from Burkholderia pseudomallei (Burkholderia pseudomallei strain 1710b)
# Assay: crystal structure
substance,measurement,value
glutaryl-CoA dehydrogenase from Burkholderia pseudomallei (enzyme),stoichiometry N,4
